From patent US20200340042, “IN VITRO SELECTION FOR NUCLEIC ACID […]” (McMaster University, published 2020)

Legend:
[1] = biological target: T1, glutamate dehydrogenase (rGDH, recombinant) (Clostridium difficile, UniProt P27346 SEQ:1-421); assay: pulldown; competes with Anti-G1T1, same epitope; conditions: tags: His-tag; expressed in E. coli; Pro-Lab Diagnostics; chain copies: 6; label: 32P; linear
T1 sequence: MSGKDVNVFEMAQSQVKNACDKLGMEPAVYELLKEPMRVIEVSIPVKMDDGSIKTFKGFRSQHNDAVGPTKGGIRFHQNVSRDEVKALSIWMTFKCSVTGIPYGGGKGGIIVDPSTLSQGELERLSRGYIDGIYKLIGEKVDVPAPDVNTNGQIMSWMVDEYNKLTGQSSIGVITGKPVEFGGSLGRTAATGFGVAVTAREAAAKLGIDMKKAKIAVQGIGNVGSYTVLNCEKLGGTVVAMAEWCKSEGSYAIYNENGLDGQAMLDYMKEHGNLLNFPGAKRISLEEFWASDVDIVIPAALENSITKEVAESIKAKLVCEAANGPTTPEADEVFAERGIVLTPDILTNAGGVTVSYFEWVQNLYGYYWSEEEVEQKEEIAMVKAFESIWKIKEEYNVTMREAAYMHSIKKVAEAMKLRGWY

[2] = biological target: T1, glutamate dehydrogenase (rGDH, …); assay: pulldown; no affinity to rGDH; conditions: tags: His-tag; expressed in E. coli; Pro-Lab Diagnostics; chain copies: 6; label: 32P
Description: (§1) The pull-down assays were conducted in a total volume of 300 μL of 1× binding buffer containing 50 μL of bead-bound rGDH (final concentration ˜50 nM) and 100 μL of 100 nM captamer candidates for 30 min with gentle rotation. In parallel, negative controls consisting of the captamers incubated with uncoated beads were included. Following three washing steps, proteins and bound aptamers were eluted with 30 μL of elution buffer (20 mM Tris-HCl, 500 mM imidazole, pH 7.5) by shaking at 90° C. for 10 min. The resultant mixtures were then analyzed by 10% dPAGE, and quantified by Image Quant software. […] Pull-down assays were conducted in a total volume of 300 μL of 1× binding buffer containing 10 μL of bead-bound rGDH (final concentration ˜9.2 nM) and 100 μL of aptamers with serial dilutions for 30 min with gentle rotation. Following washing steps, the bound DNA was then analyzed by 10% dPAGE. The apparent dissociation constants (Kd) of each aptamer candidate were obtained by fitting the fractional bound DNA to the total aptamer concentration using a one-site binding model.
However, Capt-4 was a new sequence that was not observed in the previous selection. […] In this assay, each captamer candidate was incubated with bare NiMBs or rGDH-coated NiMBs, followed by elution of the bound captamer and radioactivity analysis by dPAGE (FIG. 2a).

[3] = biological target: bovine serum albumin (BSA) (UniProt P02769 P02769:25-607)
toxin B (TcdB) = toxin B (TcdB) (Clostridium difficile, UniProt P18177 SEQ:2-2366)
toxin A (TcdA) = toxin A (TcdA) (Clostridium difficile, UniProt P16154 SEQ:1-2710)
[4] = biological target: T1, glutamate dehydrogenase (rGDH, …); assay: pulldown; 10 mM MgCl2, 150 mM NaCl, pH 7.2, 25 C; epitope distinct from aptamer 2; conditions: tags: His-tag; expressed in E. coli; Pro-Lab Diagnostics; chain copies: 6; label: 32P
Description: as §1, with “Following” for “The pull-down assays were conducted in a total volume of 300 μL of 1× binding buffer containing 50 μL of bead-bound rGDH (final concentration ˜50 nM) and 100 μL of 100 nM captamer candidates for 30 min with gentle rotation. In parallel, negative controls consisting of the captamers incubated with uncoated beads were included. Following”
(§2) The inventors measured the dissociation constant (Kd) for Capt-2 and Capt-4 using the same pull-down assay, along with their linear counterparts, Lapt-2 and Lapt-4 (FIG. 2b). […] The structural prediction with the m-fold program (http: //unafold.rna.albany.edu/?q=mfold) also provides a good rationale for the functionality of aptamer 2 in both circular and linear configurations, as the random-sequence nucleotides are predicted to form the same structural elements in both forms (FIG. 9). […]

[5] = biological target: T2, glutamate dehydrogenase (nGDH, native) (Clostridium difficile, UniProt P27346 SEQ:1-421); assay: FP filter; paper filter binding; binding buffer with 10 mM MgCl2, 1% BSA; conditions: tags: Pro-Lab Diagnostics; chain copies: 6 stated; label: 32P
T2 sequence: T1 sequence

[6] = biological target: T1, glutamate dehydrogenase (rGDH, …); assay: pulldown; 10 mM MgCl2, pH 7.2, 25 C; no detectable binding in dot blot (p157); conditions: tags: His-tag; expressed in E. coli; Pro-Lab Diagnostics; chain copies: 6; label: 32P; linear
Description: as §1, with “Following” for “The pull-down assays were conducted in a total volume of 300 μL of 1× binding buffer containing 50 μL of bead-bound rGDH (final concentration ˜50 nM) and 100 μL of 100 nM captamer candidates for 30 min with gentle rotation. In parallel, negative controls consisting of the captamers incubated with uncoated beads were included. Following”
as §2

[7] = biological target: T1, glutamate dehydrogenase (rGDH, …); assay: pulldown; […]; 50 mM HEPES, 150 mM NaCl, 10 mM MgCl2, 5 mM KCl, 0.02% Tween-20, pH 7.2, 25 C; conditions: tags: His-tag; expressed in E. coli; Pro-Lab Diagnostics; chain copies: 6; label: 32P
[8] = biological target: T1, glutamate dehydrogenase (rGDH, …); assay: pulldown; conditions: tags: His-tag; expressed in E. coli; Pro-Lab Diagnostics; chain copies: 6; label: 32P; linear
Description: as §1, with “100 μL of 1× binding buffer containing 100 nM γ-[³²P]-labeled captamer candidates was first denatured at 90° C. for 10 min, followed by incubation at RT for 20 min. The pull-down” for “The pull-down”, “10% dPAGE. […]” for “10% dPAGE. The apparent dissociation constants (Kd) of each aptamer candidate were obtained by fitting the fractional bound DNA to the total aptamer concentration using a one-site binding model.”
The inventors measured the dissociation constant (Kd) for Capt-2 and Capt-4 using the same pull-down assay, along with their linear counterparts, Lapt-2 and Lapt-4 (FIG. 2b). […]

[9] = biological target: T1, glutamate dehydrogenase (rGDH, …); assay: pulldown; competes with Anti-G1, Anti-G3, Anti-G7; conditions: tags: His-tag; expressed in E. coli; Pro-Lab Diagnostics; chain copies: 6; label: 32P; linear

Sequence of bovine serum albumin (BSA) (P02769 25-607, one chain of several): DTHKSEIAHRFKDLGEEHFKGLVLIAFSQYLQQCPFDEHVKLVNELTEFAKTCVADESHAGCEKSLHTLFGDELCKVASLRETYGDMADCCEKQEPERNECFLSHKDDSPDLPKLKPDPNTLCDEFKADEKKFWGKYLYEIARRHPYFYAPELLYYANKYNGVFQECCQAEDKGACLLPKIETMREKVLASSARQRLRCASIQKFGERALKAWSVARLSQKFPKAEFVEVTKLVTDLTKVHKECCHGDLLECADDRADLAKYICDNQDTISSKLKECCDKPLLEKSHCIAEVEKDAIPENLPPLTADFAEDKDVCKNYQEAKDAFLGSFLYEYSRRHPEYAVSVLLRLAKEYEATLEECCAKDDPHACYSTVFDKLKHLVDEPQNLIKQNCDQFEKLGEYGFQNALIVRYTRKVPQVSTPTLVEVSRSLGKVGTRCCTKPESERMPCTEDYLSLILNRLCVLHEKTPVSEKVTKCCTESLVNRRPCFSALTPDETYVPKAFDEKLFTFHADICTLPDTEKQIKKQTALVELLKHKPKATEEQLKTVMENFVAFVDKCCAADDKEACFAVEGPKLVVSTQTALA
Sequence of toxin A (TcdA) (P16154 whole entry): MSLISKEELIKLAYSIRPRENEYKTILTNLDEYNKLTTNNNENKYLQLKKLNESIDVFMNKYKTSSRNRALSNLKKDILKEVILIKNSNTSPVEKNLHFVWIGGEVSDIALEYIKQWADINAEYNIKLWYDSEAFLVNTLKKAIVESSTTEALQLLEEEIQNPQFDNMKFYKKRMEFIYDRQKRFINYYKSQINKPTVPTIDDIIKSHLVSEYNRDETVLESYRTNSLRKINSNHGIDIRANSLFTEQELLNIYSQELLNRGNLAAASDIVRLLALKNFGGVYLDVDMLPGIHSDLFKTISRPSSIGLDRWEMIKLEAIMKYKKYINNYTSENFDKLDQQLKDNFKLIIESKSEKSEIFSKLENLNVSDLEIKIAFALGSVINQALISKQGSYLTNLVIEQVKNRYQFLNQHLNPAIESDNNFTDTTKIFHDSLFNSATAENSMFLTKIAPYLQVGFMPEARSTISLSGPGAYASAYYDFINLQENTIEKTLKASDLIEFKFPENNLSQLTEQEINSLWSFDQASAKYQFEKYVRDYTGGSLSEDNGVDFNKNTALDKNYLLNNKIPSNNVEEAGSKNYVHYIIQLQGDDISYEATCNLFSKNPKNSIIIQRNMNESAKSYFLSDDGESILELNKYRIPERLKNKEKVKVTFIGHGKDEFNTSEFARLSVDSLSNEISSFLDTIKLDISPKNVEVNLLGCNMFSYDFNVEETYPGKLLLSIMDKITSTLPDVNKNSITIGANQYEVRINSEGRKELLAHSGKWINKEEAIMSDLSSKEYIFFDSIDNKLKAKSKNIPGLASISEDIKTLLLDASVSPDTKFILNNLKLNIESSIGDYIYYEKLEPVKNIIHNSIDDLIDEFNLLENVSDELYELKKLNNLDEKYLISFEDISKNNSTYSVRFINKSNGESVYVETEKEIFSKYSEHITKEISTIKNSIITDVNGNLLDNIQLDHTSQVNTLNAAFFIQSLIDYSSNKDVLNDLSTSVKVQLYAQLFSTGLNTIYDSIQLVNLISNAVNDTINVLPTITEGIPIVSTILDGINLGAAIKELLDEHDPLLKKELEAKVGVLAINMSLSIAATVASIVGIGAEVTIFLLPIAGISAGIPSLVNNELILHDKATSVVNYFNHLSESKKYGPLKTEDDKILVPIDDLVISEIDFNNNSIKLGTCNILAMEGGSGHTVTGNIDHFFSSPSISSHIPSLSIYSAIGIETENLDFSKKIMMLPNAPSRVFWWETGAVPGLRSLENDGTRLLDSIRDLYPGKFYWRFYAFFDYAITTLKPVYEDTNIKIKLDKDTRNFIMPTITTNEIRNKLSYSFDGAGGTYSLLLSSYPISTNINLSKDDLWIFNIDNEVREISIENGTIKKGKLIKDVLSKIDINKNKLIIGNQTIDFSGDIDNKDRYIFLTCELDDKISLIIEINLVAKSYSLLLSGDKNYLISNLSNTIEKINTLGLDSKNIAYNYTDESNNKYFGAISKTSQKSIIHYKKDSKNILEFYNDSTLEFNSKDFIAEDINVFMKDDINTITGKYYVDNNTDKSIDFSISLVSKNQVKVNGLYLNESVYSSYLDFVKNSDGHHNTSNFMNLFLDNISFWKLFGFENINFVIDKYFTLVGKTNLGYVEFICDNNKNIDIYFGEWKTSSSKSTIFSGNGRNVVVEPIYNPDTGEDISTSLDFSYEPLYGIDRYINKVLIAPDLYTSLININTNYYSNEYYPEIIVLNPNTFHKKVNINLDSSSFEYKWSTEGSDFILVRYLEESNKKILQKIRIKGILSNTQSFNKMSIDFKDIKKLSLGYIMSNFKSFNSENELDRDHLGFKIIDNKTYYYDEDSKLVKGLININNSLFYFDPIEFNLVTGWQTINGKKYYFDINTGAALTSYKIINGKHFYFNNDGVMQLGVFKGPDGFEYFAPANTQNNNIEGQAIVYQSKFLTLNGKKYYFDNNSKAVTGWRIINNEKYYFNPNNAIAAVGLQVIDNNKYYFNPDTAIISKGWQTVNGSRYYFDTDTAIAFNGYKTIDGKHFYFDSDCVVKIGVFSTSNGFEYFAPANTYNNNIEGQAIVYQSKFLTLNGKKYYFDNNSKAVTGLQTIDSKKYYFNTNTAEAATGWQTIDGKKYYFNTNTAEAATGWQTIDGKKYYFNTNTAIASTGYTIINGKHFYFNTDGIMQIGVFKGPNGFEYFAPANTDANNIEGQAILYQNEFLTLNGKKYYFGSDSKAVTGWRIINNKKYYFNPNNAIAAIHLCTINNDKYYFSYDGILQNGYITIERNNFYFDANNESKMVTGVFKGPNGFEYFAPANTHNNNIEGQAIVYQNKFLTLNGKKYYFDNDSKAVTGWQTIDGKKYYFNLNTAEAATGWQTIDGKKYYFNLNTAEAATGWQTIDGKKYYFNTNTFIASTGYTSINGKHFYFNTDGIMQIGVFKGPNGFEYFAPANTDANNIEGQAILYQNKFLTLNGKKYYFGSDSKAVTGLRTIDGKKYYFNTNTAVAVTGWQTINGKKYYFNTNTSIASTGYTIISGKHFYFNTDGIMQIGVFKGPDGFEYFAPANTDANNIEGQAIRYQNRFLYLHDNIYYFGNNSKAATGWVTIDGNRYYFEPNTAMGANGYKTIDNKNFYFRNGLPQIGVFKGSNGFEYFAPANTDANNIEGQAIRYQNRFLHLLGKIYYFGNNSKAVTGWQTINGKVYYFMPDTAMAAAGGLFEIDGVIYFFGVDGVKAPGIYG

B1: Anti-G3 (ssDNA)
DNA: CAGGTCCATCGAGTGGTAGGATGCAGCGGACAGTGTGGGACCATCGCTGCGGATGTATGAATCGCACTGCTCCTGAACGTAC
B1: binds [1].

B2: Scrambled Capt-4 (ssDNA)
DNA: GAAGGATTCGGACTAGGATCCGGTCCAACTACCGGTGCCCTAATGGCATCAAAACTGCGTACCGAGCGTGTTTATCTTTCTG
B2: no binding [2].

B3: Capt-4 (ssDNA)
DNA: CAGGTCCATCGAGTGGTAGGACGACCCGAATAGTGGCATATCAATGAGTGCTTGTCATCTTTCGCACTGCTCCTGAACGTAC
B3: no binding [3]; no binding (toxin B (TcdB)); no binding (toxin A (TcdA)). The Kd [4] was 12.3 nM and the Kd [5] was 2.8 nM.

B4: Lapt-4 (ssDNA)
DNA: B3 DNA
Binder B4 has a Kd [6] of 293 nM.

B5: Scrambled Capt-2 (ssDNA)
DNA: CGGGAGTACGCATGTATGAGACACCCACGCTATGTCCCTACTATGAGGTGGAGACTTGCTACGTGCATCGCAGATCGGTCAA
B5: no binding [2].

B6: Capt-2 (ssDNA)
DNA: CAGGTCCATCGAGTGGTAGGAGGAGGTATTTAGTGCCAAGCCATCTCAAACGACGTCTGAGTCGCACTGCTCCTGAACGTAC
B6 was tested, and the Kd [7] was 4.4 nM.

B7: Lapt-2 (Anti-G1) (ssDNA)
DNA: B6 DNA
For B7, the Kd [8] was 5.6 nM.

B8: Anti-G1T1 (ssDNA)
DNA: TAGGAGGAGGTATTTAGTGCCAAGCCATCTCAAACGACGTCTGAGTCGCACTGCTCCTG
B8: binds [9].

B9: Anti-G7 (ssDNA)
DNA: CAGGTCCATCGAGTGGTAGGACCCAACCCACGATGCGCAAGAGGAATGCAGCCTACCAGCATCGCACTGCTCCTGAACGTAC
B9: binds [1].
